Tests used:
[1] = molecular target: T1, N-acetyl-alanyl-alanyl-dioleoyl phosphatidylethanolamine
T1 chain: AA

[2] = molecular target: T2, MeO-suc-ala-ala-pro-val-DOPE (1,2-Dioleoyl-sn-glycero-3-phosphoethanolamido-val-pro-ala-ala-sucMeO)
T2 chain: AAPV

Protein	cleavage of N-Ac-AA-DOPE to DOPE, TLC [1]	cleavage of N-Ac-AA-DOPE, HPLC [1]	cleavage of MeO-suc-ala-ala-pro-val-DOPE, TLC, HLE dose titration [2]	conversion of MeO-suc-AAPV-DOPE to DOPE, 31P-NMR [2]	conversion of exposed (outer leaflet) MeO-suc-AAPV-DOPE to DOPE, 31P-NMR, assuming unilamellar vesicles [2]	kinetics of cleavage of MeO-suc-ala-ala-pro-val-DOPE, TLC [2]	cleavage of N-Ac-ala-ala-DOPE, HPLC [1]	conversion of N-acetyl-ala-ala-DOPE to DOPE, 31P NMR integration [1]
Human leukocyte elastase (protein) IVGGRRARPHAWPFMVSLQLRGGHFCGATLIAPNFVMSAAHCVANVNVRAVRVVLGAHNLSRREPTRQVFAVQRIFENGYDPVNLLNDIVILQLNGSATINANVQVAQLPAQGRRLGNGVQCLAMGWGLLGRNRGIASVLQELNVTVVTSLCRRSNVCTLVRGRQAGVCFGDSGSPLVCNGLIHGIASFVRGGCASGLYPDAFAPVAQFVNWIDSIIQ	Treatment of N-Ac-AA-DOPE liposomes with elastase generated a product corresponding to DOPE	Both elastase and proteinase K cleaved N-Ac-AA-DOPE to a similar extent	between 5-40 micrograms of HLE were effective in cleaving the AAPV-PE	Treatment with 5 micrograms of elastase/100 nmol lipid yielded 20% DOPE	the minimal percentage conversion of exposed MeO-suc-AAPV-DOPE (SEQ ID NO:42) to DOPE in the outer leaflet lipid of this preparation was 40%	The peptide was cleaved by HLE in as little as 1 hour at 37 degrees C.		
proteinase K (protein) AAQTNAPWGLARISSTSPGTSTYYYDESAGQGSCVYVIDTGIEASHPEFEGRAQMVKTYYYSSRDGNGHGTHCAGTVGSRTYGVAKKTQLFGVKVLDDNGSGQYSTIIAGMDFVASDKNNRNCPKGVVASLSLGGGYSSSVNSAAARLQSSGVMVAVAAGNNNADARNYSPASEPSVCTVGASDRYDRRSSFSNYGSVLDIFGPGTSILSTWIGGSTRSISGTSMATPHVAGLAAYLMTLGKTTAASACRYIADTANKGDLSNIPFGTVNLLAYNNYQA	Upon incubation of N-Ac-AA-DOPE liposomes with proteinase K the peptide-lipid was cleaved and DOPE was generated	Both elastase and proteinase K cleaved N-Ac-AA-DOPE to a similar extent					both proteinase K, with a known cleavage site, and the nonspecific mixture of proteases found in pronase, effected cleavage of N-Ac-ala-ala-DOPE from the liposomes	approximately 20% of the N-acetyl-ala-ala-DOPE was converted to pure DOPE in sample B

Reference: US6339069
